# Laboratory results as given in the DeepSol protein solubility set.
# Assay: soluble on expression in E. coli; label from the status in PepcDB or PDB records
row,Sequence,soluble on expression in E. coli
1,MRIESPQNPRVKALAALKERKERERTGRFLVEGRREVERALEAGLSLETLLLGPKARPEDRALAGGAEVLELSERALARVSTRENPAQVLGVFRLPRRSLAGVTLGAAPLVLVLLGLEKPGNLGAILRAADGAGADLVLVAEGVDLFSPQVIRNSTGAVFALPVYPVAEGEAARFLEEHNLPLVAATPEGERLYWEGDYRGGVAFLLGAEDKGLPEAWKRRAQVRVRIPMRGRADSLNVAVTAALLLYEALRQRSGGAPL,soluble
2,MTEMSFLSSEVLVGDLMSPFDQSGLGAEESLGLLDDYLEVAKHFKPHGFSSDKAKAGSSEWLAVDGLVSPSNNSKEDAFSGTDWMLEKMDLKEFDLDALLGIDDLETMPDDLLTTLDDTCDLFAPLVQETNKQPPQTVNPIGHLPESLTKPDQVAPFTFLQPLPLSPGVLSSTPDHSFSLELGSEVDITEGDRKPDYTAYVAMIPQCIKEEDTPSDNDSGICMSPESYLGSPQHSPSTRGSPNRSLPSPGVLCGSARPKPYDPPGEKMVAAKVKGEKLDKKLKKMEQNKTAATRYRQKKRAEQEALTGECKELEKKNEALKERADSLAKEIQYLKDLIEEVRKARGKKRVP,soluble
3,LEQYVVVSNYKKQENSELSLQAGEVVDVIEKNESGWWFVSTSEEQGWVPATYLEAQN,soluble
4,MGQLFSSPQSEHQDLASSFTEYFKKFKTGNKIISQDIITLVELSLAKGNIQEANSAIRNALKEIDSTPLNVAVTGESGSGKSSFINTLRGIGHEEKGAAKTGVVEETMERHPYKHPNMPNVVFWDLPGIGTQTFPPKTYLEKMKFYEYDFFIIISATRFKKNDIDLAKAISMMKKEFYFVRTKVDSDLNNEEDFKPQNFDREKVLQNIRLNCVNTFKENGIAEPQIFLVSNKNVCHYDFPVLIDRLISDLPLYKRQNFMLSLPNITESAIEKKQQFLKQSIWLEGFAPDLLSIKPSLAFLNSDLETLEKSMKFYRSVFGVDEASLKSLATAWKIPVDQVEAMMKSPAVFKPTDEETIQERLSRYVLEICFANRYLFRKNLFLRNVFYLKYYFLDMVTEDAKTLLKEIYLRNKLPSN,not soluble
5,MGSDKIHHHHHHMASLPRLYYVTSGLDEANAFATWRAVISPLFEPRPCGPSRKTPTGSAYGIIIGDLVVAKVAFNAQDFVRDAQRIAVTPDHLLLHLYVSGGFNGEVTRQQTVIGPGKVALIDLACPLSTRAFASNTMCLIVPRKLLAGLPLHALKPKLDPLRNDLLAAYIRSLQERSAQLTEADVATTVAETADFLRRLLAPSAEADLAPERSADETILALTEALIRDNLALPELSPDWLAQQLDVSRASLYRLFAERGGVMRYVQERRLLAVQAALADPLETRRLSRLASDLGFKSEAHFSRSFRARFGITASAYRKAQLDASAAIQLTSPAVVQQWWTAVARDPLRHAG,not soluble
6,MSLKIEPCLPMKILIVEDDPLMQLGLEQALGAHERFEIIGRVDNGYGAVQQAAVLNPDLIVMDIGLPGLDGIEATKQIKQTSPQIHIVVLTSHTLPNEIIAALSSGADAYCVKGATLERLILAIAAAQDGATYLDPQIARVVVENLKPPVPEGQADVSSLSEREIDVLKLIVEGKSNQEIAQTLYLSTNTIKTHVRGIMNKLSVDDRVQAAVIALRSGLVEGHHHHHH,soluble
7,MSLHSVKASANRFTKTSQGRSWNTGNGSPDAICFAVDKPGIVVVGFAVYGGGGIHEYELEVLVDDSEHAGDSTHSHRWTSLELVKGTYTTDDSPSDIAEIRLDKVVPLKENVKYAVRLRNYGSRTANGDGGMTTVQCPDGVTFTFSTCSLSSNGTNQTRGQIPQILYYRSEFDGDLQSQLLSKANEEDKNCSRALSVVSTVVRAAKDLLHRALAVDADEGHHHHHH,soluble
8,MRWRADFLSAWAEALLRKAGADEPSAKAVAWALVEADLRGVGSHGLLRLPVYVRRLEAGLVNPSPTLPLEERGPVALLDGEHGFGPRVALKAVEAAQSLARRHGLGAVGVRRSTHFGMAGLYAEKLAREGFVAWVTTNAEPDVVPFGGREKALGTNPLAFAAPAPQGILVADLATSESAMGKVFLAREKGERIPPSWGVDREGSPTDDPHRVYALRPLGGPKGYALALLVEVLSGVLTGAGVAHGIGRMYDEWDRPQDVGHFLLALDPGRFVGKEAFLERMGALWQALKATPPAPGHEEVFLPGELEARRRERALAEGMALPERVVAELKALGERYGVPWRDDA,soluble
9,MANAYKQAGVDIEAGYEAVSRMKKHVQTTMRKEVLGGLGGFGGMFDLSKFALEEPVLVSGTDGVGTKLMLAFMADKHDTIGIDAVAMCVNDIVVQGAEPLFFLDYIACGKAEPSKIENIVKGISEGCRQAGCALIGGETAEMPGMYSTEEYDLAGFTVGIVDKKKIVTGEKIEAGHVLIGLASSGIHSNGYSLVRKVLLEDGELSLDRIYGRLELPLGEELLKPTKIYVKPILELLKNHEVYGMAHITGGGFIENIPRMLPEGIGAEIELGSWKIQPIFSLLQEVGKLEEKEMFNIFNMGIGMVVAVKEEDAKDIVRLLEEQGETARIIGRTVQGAGVTFNGGKAL,soluble
10,GSSPQREPQRVSHEQFRAALQLVVDPGDPRSYLDNFIKIGEGSTGIVCIATVRSSGKLVAVKKMDLRKQQRRELLFNEVVIMRDYQHENVVEMYNSYLVGDELWVVMEFLEGGALTDIVTHTRMNEEQIAAVCLAVLQALSVLHAQGVIHRDIKSDSILLTHDGRVKLSDFGFCAQVSKEVPRRKSLVGTPYWMAPELISRLPYGPEVDIWSLGIMVIEMVDGEPPYFNEPPLKAMKMIRDNLPPRLKNLHKVSPSLKGFLDRLLVRDPAQRATAAELLKHPFLAKAGPPASIVPLMRQNRTR,soluble
11,MTGCSHRFYYSHMIQTSVRSFEVGEDLASMAVDERISLLRSRMQSISKSGDFSLDYNCKTADKNIIPLSDPLSHVLPWGGLPRG,not soluble
12,MGSDKIHHHHHHMRVEEAKYLAKKIMMAGEIPLLVGHFGVGKTDIARDIARETERKLIILVLSQMEPGDLIGLPARTEEKTVFLKPDWWPESGDTILFLDEINRAHRSVRNAIMQLLVDRRIHNHILPEGTWIMAAMNPPEEEYDQADLITDPAFISRFFILEVNPDVSEWLEWAEKNNVSKEVRDFIRDYPEFLFSERSLSLRTSLKPSPRSWYKLSNVLKTLTDDEKEKYGYVIAAGIVGPEAAKAFYDSFFQRVKIPSVESVLFDGKIENLEDIHAANTLVLRIVDFLSKVDVRTLERHLDDVSKNLVRLSEIMPKESFYGVLRFLVDEAQKEGEKSWIFDKILEKMLEREDMRKMVNEL,not soluble
13,MGSDKIHHHHHHMRVFIIHLSPKTCQNFSLKETHITPLLESLKLQGISYEIFDAIYSKISPTQLHPLILEHLHPSFMVEDLWAFCKNKKHPPCALKNFFYAIKHCGKRMGFGELGCYASHYSLWQKCIELNEAICILEDDIIIKDRFKESLEFCRHHINELGYIRLMHLEENVAKQKTPVKGVSQILNFKDGIGTQGYVLAPKAAQKLLKYSAKEWVMPIDCVMDRHYWHGVKNYVLEEFAIACDGMNAQNSNTEKQRPKKLPLSIRIGRSLHKSTIKFLDKVFRYSPKLIRIGKH,not soluble
14,MWLEKFKNKNKETKYRYYEKYKDPLTAKWRRVSVVLNKNGKQSQKEAQRLLNERIEAKLNDKTPTTLKSLTFHVACDEWFQSYIKTSGSKRTTIKTKLSKLNTLKKFVDEDILINKITLSYAQQVFDEMDNKGYVYQVNKDALSIFKNVFEYTRRIYKLQDLEFLKDITLNKRIKSYDEVKAKRNKYLELNEIQSIIKDINTKAQKMHSGIHKRFYLFVALMTEFQALNGMRIGEMLAIQNEDIDFDNKSLNINGTIHWFHDESGGFGVKDTTKTESSYRTIGLSSRSCEILKKAILENKKDSKWNDGYLNRNFVFTNHKGNPMQTERFNKILREAAKDVGIDKEVSSHILRHSHISLLSQQGVSLKAIMDRVGHSDHRTTLSIYSHVTEQMDKDMMNKLEQVKLG,not soluble
15,MTMLLDGGPQFPGLGVGSFGAPRHHEMPNREPAGMGLNPFGDSTHAAAAAAAAAAFKLSPAAAHDLSSGQSSAFTPQGSGYANALGHHHHHHHHHHHTSQVPSYGGAASAAFNSTREFLFRQRSSGLSEAASGGGQHGLFAGSASSLHAPAGIPEPPSYLLFPGLHEQGAGHPSPTGHVDNNQVHLGLRGELFGRADPYRPVASPRTDPYAAGAQFPNYSPMNMNMGVNVAAHHGPGAFFRYMRQPIKQELSCKWIDEAQLSRPKKSCDRTFSTMHELVTHVTMEHVGGPEQNNHVCYWEECPREGKSFKAKYKLVNHIRVHTGEKPFPCPFPGCGKIFARSENLKIHKRTHTGEKPFKCEFEGCDRRFANSSDRKKHMHVHTSDKPYICKVCDKSYTHPSSLRKHMKVHESQGSDSSPAASSGYESSTPPAIASANSKDTTKTPSAVQTSTSHNPGLPPNFNEWYV,soluble
16,MAHHHHHHMMYSRLFHESLGIVIISPSRSSASPALVIADAFYSAMRLQVMLAMPFVQPRFASIFRLLLRAVPLLPPFMATFTFRRCTSDLSRRSAMRCFTARLQLLTFETLLCGSHGVLPPPARLAAACARAKEEFALQCSTSAPPPTKLTTAVVATHLLHNNLRDAAAVLASHPCQQQVLEEVRDYVRQHPGVFSVSTLTGMLEEARCVSPAAVATFLRAAVDEFLRGSSAASTVGDEATAWDAQRENLRSLVLRHIRFYPACVSFLLGSLCAVSRGCAGDREDVIEVMQIAMRERSMNPRDFGGVLDVVWKSREPRRVAMMWAWMQHTSACWDVRAASIAIMAFSELHQMDEAVACIQRLAEADGDPTIDAQVAFVRFLGVRTPSLLRYAAQLVLHWHPSGERLWRGEPQAVGMELVKICCACGERKWAVEMLEQMVATNASVPAELEAFMLRPGAAALGEHYSASVAASKTLQELFIDVPLRLPNLGEQPALVGLLLSLGMVTNRLPEVYDALEKASLTPANFQDALDCFVTGSVVKAASPVAVLACVREAGVRTGHKVPKEMESWLQLATEM,not soluble
17,MGSDKIHHHHHHMEIFEDVVRCGGFRAAALGRGVSSSAISQSISVLEEALGIRLLNRTTRSVAPTEAGEQLLERLRPALYEIRTAVDDLNQLRERPSGTVRINAPGPAADHVLCPLTFEFMKIYPDVNVEIVSDAAIIDIVEQGFDAGVRFGNQLAQDMIAMPLGPALRYAIVASPDYLRKRGRPHSPRDLLQHDCIRRRFPGGTMVTWKFARDGDEVEITPKGRLTLSSAHQELQAALAGSGIAHLFEDYVRDDVEQGRLVELLCDWKQKLPSWYLYYPSRRHTSAAMRAFLEYIRNQRQHPDRR,not soluble
18,MSLLNKMRCSVSAEVYGEWNKKKNFVAPVYEKDEGQKEQLERILRQSFLFNSLDEKDLNTVILAMQEKKIEASTCLIREGDDGECLYIVQSGELNCSKLIDGEERVVKVVGPGDAFGELALLYNAPRAATVTSVSACDLWELGRDTFNAIVKDAATKRRSMYDSFLKSVHILDGMDAYERGKVADALRTEMFTDGAYIVRQGELGDVFYIVEEGSAVATKSFGPGQPPIEVKKYQAGDYFGELALINEEPRAANVIAHGICKVACLERKSFKRLMGSVQDLLSKKASDLLTMAEEGHHHHHH,soluble
19,MGMENYNPPQEPWLVILYQDDHIMVVNKPSGLLSVPGRLEEHKDSVMTRIQRDYPQAESVHRLDMATSGVIVVALTKAAERELKRQFREREPKKQYVARVWGHPSPAEGLVDLPLICDWPNRPKQKVCYETGKPAQTEYEVVEYAADNTARVVLKPITGRSHQLRVHMLALGHPILGDRFYASPEARAMAPRLLLHAEMLTITHPAYGNSMTFKAPADFLEHHHHHH,soluble
